According to patent US11203743B2, “Method for producing long-chain glycosylated genistein” (Jiangnan University, priority 2019, dated 2021):
Residue numbers refer to the chain shown, from its start. Names and notes keep the numbering of the source.

Assays:
[1] = relative to genistein; cited from earlier work
[2] = Specificity of different cyclodextrin glucosyltransferases to glycosylated genistein products (maltodextrin donor, genistein receptor, HPLC); assay type: biochemical; conditions: for content of long-chain glycosylated genistein in the reaction solution / content of short-chain glycosylated genistein in the reaction solution / ratio of the molar content of long-chain glycosylated genistein to the molar content of total glycosylated genistein in the reaction solution / ratio of the molar content of short-chain glycosylated genistein to the molar content of total glycosylated genistein in the reaction solution: 40° C., pH 6.5, 120 rpm, 20-24 hours
Procedure: Genistein (purchased from Sigma) was dissolved in dimethyl sulfoxide (DMSO) to prepare a genistein solution with a final concentration of 7.5 g/L; maltodextrin (purchased from Shanghai Sangon Biotech Co., Ltd.) was dissolved in a PBS buffer (50 mM, pH 6.5) to prepare a maltodextrin solution with a final concentration of 40 g/L; the freeze-fried pure enzymes of the mutants A156V/L174P, A156V/L174P/166Y, A156V/L174P/A166V, A156V/L174P/A166G, A156V/L174P/A166K, A156S, A156L and L174M obtained in Example 1 were dissolved in a PBS buffer (50 mM, pH 6.5) separately to prepare a CGTase enzyme solution with a final concentration of 15 U/L; 300 μL of the genistein solution, 500 μL of the maltodextrin solution and 200 μL of the CGTase enzyme solution were taken separately, mixed in a 2 mL vial with a lid and placed in a shaker for slow shaking at 40° C. and 120 rpm for 20-24 hours to obtain a reaction solution.
The molar content of short-chain glycosylated genistein (here the short-chain glycosylated genistein was a mixture of monoglycosylated genistein, diglycosylated genistein and triglycosylated genistein) and long-chain glycosylated genistein (here the long-chain glycosylated genistein was a mixture of tetraglycosylated genistein, pentaglycosylated genistein and hexaglycosylated genistein) in the reaction solution was detected by HPLC, the ratio (%) of the molar content of short-chain glycosylated genistein and long-chain glycosylated genistein in the reaction solution to the molar content of total glycosylated genistein in the reaction solution and the content (g/L) of short-chain glycosylated genistein and long-chain glycosylated genistein in the reaction solution were calculated, and detection results were shown in Tables 1 to 2. A method for detecting the ratio (%) of the content of short-chain glycosylated genistein and long-chain glycosylated genistein in the reaction solution to the content of total glycosylated genistein in the reaction solution by HPLC included that the reaction solution was filtered through a 0.22 μm filter membrane, and an Amethyst C18-H column (4.6*250 mm, Sepax, America) was used for detection (see Table 3 for specific detection conditions). The content of long-chain glycosylated genistein=the molar content of hexaglycosylated genistein*the molecular weight of hexaglycosylated genistein+ the molar content of pentaglycosylated genistein*the molecular weight of pentaglycosylated genistein+ the molar content of tetraglycosylated genistein*the molecular weight of tetraglycosylated genistein, and the content of short-chain glycosylated genistein=the molar content of triglycosylated genistein*the molecular weight of triglycosylated genistein+ the molar content of diglycosylated genistein*the molecular weight of diglycosylated genistein+ the molar content of monoglycosylated genistein*the molecular weight of monoglycosylated genistein.

[3] = Effect of reaction temperature on the yield of long-chain glycosylated genistein; assay type: biochemical
Procedure: On the basis of Example 2, the mutant A156V/L174P/A166Y with the highest specificity to long-chain glycosylated genistein products was selected, and the reaction temperature was changed into 30° C., 35° C., 40° C., 45° C., 50° C., 55° C. and 60° C. separately.
(§1) With reference to Example 2, the molar content of short-chain glycosylated genistein (here the short-chain glycosylated genistein was a mixture of monoglycosylated genistein, diglycosylated genistein and triglycosylated genistein) and long-chain glycosylated genistein (here the long-chain glycosylated genistein was a mixture of tetraglycosylated genistein, pentaglycosylated genistein and hexaglycosylated genistein) in a reaction solution was detected by HPLC, the ratio (%) of the molar content of short-chain glycosylated genistein and long-chain glycosylated genistein in the reaction solution to the molar content of total glycosylated genistein in the reaction solution and the content (g/L) of short-chain glycosylated genistein and long-chain glycosylated genistein in the reaction solution were calculated, and detection results were shown in Table 4 and FIG. 1.

[4] = Effect of reaction pH on the yield of long-chain glycosylated genistein; assay type: biochemical
Procedure: On the basis of Example 2, the mutant A156V/L174P/A166Y with the highest specificity to long-chain glycosylated genistein products was selected, the reaction temperature was controlled to be 50° C., and the reaction pH was changed into 4, 5, 6, 7 and 8 separately.
as §1, with “5” for “4”, “2.” for “1.”

genistein diglucoside
solubility in water, times higher than that of genistein [1]: 3,700 times

genistein triglucoside
solubility in water, times higher than that of genistein [1]: 44,000 times

B1: A156V/L174P/A166Y: cyclodextrin glucosyltransferase mutant: A156V, L174P and alanine 166 into tyrosine of SEQ ID NO: 1 (protein)
chain: SPDTSVDNKVNFSTDVIYQIVTDRFADGDRTNNPAGDAFSGDRSNLKLYFGGDWQGIIDKINDGYLTGMGVTALWISQPVENITSVIKYSGVNNTSYHGYWARDFKQTNDAFGDFADFQNLIDTAHAHNIKVVIDFAPNHTSPADRDNPGFAENGVLYDNGSLLGYYSNDTAGPFHHNGGTDFSTIEDGIYKNLYDLADINHNNNAMDAYFKSAIDLWLGMGVDGIRFDAVKHMPFGWQKSFVSSIYGGDHPVFTFGEWYLGADQTDGDNIKFANESGMNLLDFEYAQEVREVFRDKTETMKDLYEVLASTESQYDYINNMVTFIDNHDMDRFQVAGSGTRATEQALALTLTSRGVPAIYYGTEQYMTGDGDPNNRAMMTSFNTGTTAYKVIQALAPLRKSNPAIAYGTTTERWVNNDVLIIERKFGSSAALVAINRNSSAAYPISGLLSSLPAGTYSDVLNGLLNGNSITVGSGGAVTNFTLAAGGTAVWQYTAPETSPAIGNVGPTMGQPGNIVTIDGRGFGGTAGTVYFGTTAVTGSGIVSWEDTQIKAVIPKVAAGKTGVSVKTSSGTASNTFKSFNVLTGDQVTVRFLVNQANTNYGTNVYLVGNAAELGSWDPNKAIGPMYNQVIAKYPSWYYDVSVPAGTKLDFKFIKKGGGTVTWEGGGNHTYTTPASGVGTVTVDWQN
modifications: Translated from synthetic DNA
content of long-chain glycosylated genistein in the reaction solution [2]: 8.5 g/L
content of short-chain glycosylated genistein in the reaction solution [2]: 8.0 g/L
ratio of the molar content of long-chain glycosylated genistein to the molar content of total glycosylated genistein in the reaction solution [2]: 40%
ratio of the molar content of short-chain glycosylated genistein to the molar content of total glycosylated genistein in the reaction solution [2]: 60%
specificity to long-chain glycosylated genistein products in comparison with wild type ([2]; in words, from Tables 1 to 2): significantly improved
increase of the yield of long-chain glycosylated genistein compared with wild-type cyclodextrin glucosyltransferase ([2]; versus wild type): 165%
content of long-chain glycosylated genistein in the reaction solution ([3]; 30° C.): 6.8 g/L
content of short-chain glycosylated genistein in the reaction solution ([3]; 30° C.): 8.9 g/L
content of long-chain glycosylated genistein in the reaction solution ([3]; 35° C.): 7.6 g/L
content of short-chain glycosylated genistein in the reaction solution ([3]; 35° C.): 8.5 g/L
content of long-chain glycosylated genistein in the reaction solution ([3]; 40° C.): 8.4 g/L
content of short-chain glycosylated genistein in the reaction solution ([3]; 40° C.): 8.0 g/L
increase of the yield of long-chain glycosylated genistein in comparison with 40° C. ([3]; 45-50° C. versus 40° C.): 21.4-23.8%
content of long-chain glycosylated genistein in the reaction solution ([3]; 45° C.): 10.1 g/L
content of short-chain glycosylated genistein in the reaction solution ([3]; 45° C.): 6.8 g/L
content of long-chain glycosylated genistein in the reaction solution ([3]; 50° C.): 10.0 g/L
content of short-chain glycosylated genistein in the reaction solution ([3]; 50° C.): 6.6 g/L
content of long-chain glycosylated genistein in the reaction solution ([3]; 55° C.): 8.9 g/L
content of short-chain glycosylated genistein in the reaction solution ([3]; 55° C.): 5.6 g/L
content of long-chain glycosylated genistein in the reaction solution ([3]; 60° C.): 5.7 g/L
content of short-chain glycosylated genistein in the reaction solution ([3]; 60° C.): 3.6 g/L
ratio of the molar content of long-chain glycosylated genistein to the molar content of total glycosylated genistein in the reaction solution ([3]; FIG. 1, highest value reached with rising temperature): 49%
increase of the ratio of long-chain to total glycosylated genistein in comparison with 40° C. ([3]; FIG. 1, versus 40° C.): 21%
yield of long-chain glycosylated genistein ([3]; temperature 45-50° C. (highest)): 10.2 to 10.4 g/L
ratio of the molar content of long-chain glycosylated genistein to the molar content of total glycosylated genistein in the reaction solution ([4]; FIG. 2, pH 4 (highest)): 70%
increase of the ratio of long-chain to total glycosylated genistein in comparison with pH 6.5 ([4]; FIG. 2, pH 4 versus pH 6.5): 30%
content of long-chain glycosylated genistein in the reaction solution ([4]; pH 4, 50° C.): 10.2 g/L
content of short-chain glycosylated genistein in the reaction solution ([4]; pH 4, 50° C.): 2.6 g/L
yield of long-chain glycosylated genistein ([4]; pH 4 or 8 (highest), 50° C.): 10.2 to 10.3 g/L
increase of the yield of long-chain glycosylated genistein in comparison with pH 6.5 ([4]; pH 4 or 8 versus pH 6.5): 20%
content of long-chain glycosylated genistein in the reaction solution ([4]; pH 5, 50° C.): 7.2 g/L
content of short-chain glycosylated genistein in the reaction solution ([4]; pH 5, 50° C.): 8.8 g/L
content of long-chain glycosylated genistein in the reaction solution ([4]; pH 6, 50° C.): 8.5 g/L
content of short-chain glycosylated genistein in the reaction solution ([4]; pH 6, 50° C.): 8.0 g/L
content of long-chain glycosylated genistein in the reaction solution ([4]; pH 7, 50° C.): 9.7 g/L
content of short-chain glycosylated genistein in the reaction solution ([4]; pH 7, 50° C.): 5.5 g/L
content of long-chain glycosylated genistein in the reaction solution ([4]; pH 8, 50° C.): 10.3 g/L
content of short-chain glycosylated genistein in the reaction solution ([4]; pH 8, 50° C.): 3.6 g/L

B2: Wild type: cyclodextrin glucosyltransferase with the amino acid sequence shown as SEQ ID NO: 1 (protein)
chain: B1 chain with V156A, Y166A, P174L
modifications: Translated from synthetic DNA
content of long-chain glycosylated genistein in the reaction solution [2]: 3.2 g/L
content of short-chain glycosylated genistein in the reaction solution [2]: 11.4 g/L
ratio of the molar content of long-chain glycosylated genistein to the molar content of total glycosylated genistein in the reaction solution [2]: 15%
ratio of the molar content of short-chain glycosylated genistein to the molar content of total glycosylated genistein in the reaction solution [2]: 85%
